From patent US7541446B2, “Tet repressor-based transcriptional regulatory proteins” (Tet Systems Holding GmbH & Co. KG, priority 1999, dated 2009)

What was measured:
tetO DNA = assay: DNA retardation experiment with radioactively labeled tetO DNA; type: binding; details: produced in HeLa cells; compared with rtTA2
Source text: Cellular material from cells transfected as described above was also used to compare the binding of rtTA2-34R and rtTA2 (rtTA fused to 3 minimal activation domains) to operator DNA in DNA retardation experiments.
rtTA2 and rtTA2-34R^S were produced in HeLa cells and exposed to radioactively labeled tetO DNA in presence (+) and absence (−) of Dox.

luciferase activity = assay: Doxycycline-dependent regulation of luciferase in HeLa cells, transient transfection of rtTA2-34R^S or rtTA2; type: cell-based
Source text: The synthetic gene encoding rtTA2-34R^S was cloned into pUHD15-1 and expression was examined in HeLa cells.

B1: rtTA2-34R^S: first 206 amino acids of rtTA-34R fused to 3 minimal VP-16 activation domains (FFF), synthetic gene with human codon frequencies, SEQ ID NO: 5 (protein)
chain: MSRLDKSKVINSALELLNGVGIEGLTTRKLAQKLGVEQPTLYWHVKNKRALLDALPIEMLDRHHTHFCPLEGESWQDFLRNNAKSFRCALLSHRDGAKVHLGTRPTEKQYETLENQLAFLCQQGFSLENALYALSAVGHFTLGCVLEEQEHQVAKEERETPTTDSMPPLLRQAIELFDRQGAEPAFLFGLELIICGLEKQLKCESGGPADALDDFDLDMLPADALDDFDLDMLPADALDDFDLDMLPG
With B1 the “residual binding to operator DNA (binding in the absence of Dox)” value (tetO DNA) was “greatly reduced”, the “induction in cells treated with Dox” value (luciferase activity) was “up to 20 fold” and the “luciferase activity in relative light units, + Dox” value (luciferase activity; + Dox) was 20.325. The “luciferase activity in relative light units, − Dox” value (luciferase activity; − Dox) was 1.
